From a protein production outcome set (Wang et al. 2014)

Assay: label from the status in PepcDB records

| Sequence | protein production |
| --- | --- |
| MAVLYAGRPVQKCERSRLMFNIDQPDSAPDNEDHDGDVVMHGQGSFFGRRKGHKLRAHQADLIENLLPHLSLQIDSPAPEPLTTLFDPPVEHMRLEIGFGGGEHLIAEALAHPDTGFIGAEPYVNGMAKILARIEAENIRNIRLFAGDASELLAWVPAGSLARIDLIHPDPWPKRRHWKRRFVQDATVAAMARALTPHGEFRFVCDIDGYTAWTLAHLLRAPCFDWLAQRADDWRKPWPNYTMTRYGRKAEREGRRANYLRFERL | failed |
| MWVQTKANEDAAPMSERFTLVLLTHEAKALAQRALRYYSSFACSILVLDSSEKADESLARQFPKVDYRHVPQFSRQDQQGKLTYGVGLVDTPYLAIASDTDFLIADGISAALAFLDAHPDYAVCHGYGLMYSARVLETSYYLRDRKGPEDFAAANGRERIMSFMGHYLSPFNAVTRTDVLRQWYSQLPPAVSTEWLDIGYAFFLLATAKARILPVPFIVREANREALERTARIQALLSSKDAGSLAQHQQFAEFLATLPHNCEGPDAQQMKQLALDSFAALAECLESGRSLKGVMIFRSTWSEVGKDPVRAFGSEQFVEMPFYNQPMFDLLTQIEFLVHAMPAGRLQLNELEGVLLKQEELLRVHSNDTARTLRSRLWEAMALNLFNFTVVKRLAESMRDTDEVEVFRELQEWAARLKALPATDSSALFANTQSGQLFSWLEGRGPKPGQFKSIAHLLGRRAGGPQFQILLLDLDADMIKLQATFDSLMANHCKAFKLVVLTTGDLPAMTTAQDTVHFVKVSQGNYIERLNQLVAQSTAHWVLLMEAGDQLTASGLLRASLELLGAEGIRAVAMDEVQRQADGTLRHVFRPGVNLDLLQSAPNLMARHWLLHREVLLQAGGFNREFARAVELDLVLRLIEDGGLAGLAHLAEPLLICQAAPAGENAEERQVLSRHLANRGYRAQVSSAQPGTYQIDYQHAERPLVSIILPSQDNFAELQRCLVSVLQRTRYQRYEVLIAENHSQNAELDSWLASLERQGERIRVLRSGQRVSTSALHNAACAEAKGEYLLLLSADAEVVNANWIDSLLNQVQRPEIGIVGARLVNERGMTTQAGLILGLNGQLGAAFAGEAKDAPGYMNSLWVEKNYSAVSGVCLMIAKALFEAVGGLDEEHFDQAFADVDLCLKVADAGYLTVLTPQAQVMHPGTLAQDPQALAALKDKWAARFAQDTAYNQNLALTGKGFALGTASRVDWQQLLSN | failed |
| NALHIINMVGTRNATDYGKHICVSFLQELQMLCPDVLVVSGLAYGIDINAHRSALSVELPTVGVLAHGLDRIYPSLHRKTAIDMLRQGGLLTEFLSGTNPDKHNFISRNRIVAGISDATIVVESAAKGGSLITADIAGSYHRDCFAFPGR | failed |
| MPTLIVLIGPTGVGKTELSLRLAENFHTSIVSADSRQLYAELKIGTAAPTPDQLKRVPHYLVGTLHLTDYYSAAQYEQEAMEILHQLFTEHEVVVLTGGSMMYVDAICKGIDDIPTVDAETRQVMLQKYEEEGLEQLCAELRLLDPDYYRIVDLKNPKRVIHALEICYMTGKTYTSFRTQQKKERPFRILKIGLTRDREELYDRINRRVDQMMEEGLLDEVRSVLSYRHLNSLNTVGYKELFKYLDGEWELPFAIEKIKQNSRIYSRKQMTWFKRDEEIRWFHPEQETEILEYLRLQNLTHLPSLDTFLEHHHHHH | not failed |
| MCYHLIIDSFIDRISRMHTQRGLEVTTGSIEAVDSINYFHEQVLSSGQNAIQILDSAKKHTDNLLIQTYAAAFYLYAQEDVANEQASDYLQSAFRLLTSANEREKLIFEAVTNWSKRDYANAISLLVTLLERYPRDTLALKFMEWLFYCTGQAFNAEYFLKVCDKCAPENQDESHFLAIHSFALELCGQYSKAKEMAEEAITMNLLTPWAHHTLAHVHLLTSDITGGINRLRDLQKTWEDILPLLKGHNTWHLALFYLANRNEEEVKKLYPHISGALPDTVLEQLDTISLLWRMDMAGLPQDRLLNQVVDHLSTHPLEYYTGFTNAHFIYCLVKSGYKNEADESLKRMKFYACSPSSDALWGDVVLPLCQGIYAFADADYKTALMLMEPVIGECAQLGGSDAQIELFFQTYLLVLIHNKQKDKALQFFTEHLKYYNNTPLSDWWFQSANKA | failed |
| TPVVFLGAGNLATNLAKALYRKGFRIMQVYSRTEESARTLANEVEAEYITDLKDVSNEARLYIISLKDAAFVELLPQITDGKQHALLVHTAGSIPMNIWEGHAERYGVFYPMQTFSKQREVDFREVPFFIEAKRPEDTELLKAVAGTLSDKVYEAD | failed |
| MASSYTLMLFLCLSIFLIASTEMMAVEGRICERRSKTWTGFCGNTRGCDSQCKRWERASHGACHAQGFPVSGIPSALPTVTHAKQREKMSAMGAYGITYFVGSIIGLLFVQGFEPEKGTLFKEQKGGVSKIDPKP | failed |
| SHMEIVPDTSVVIDGRVSDQVKADADPDTDVDGMGFAGATVVVPEAVVGELEAQANDGRETGWEGLEELQTLVDLAEEGTIDVEYVGRRPDAIEKREAGEGQIDALIRDIAGDRDATLVTSDDVQAEVARAKGLAVEFVDPVKRTVDRLQI | not failed |
| MPDPAAPGTLRPGGRTARIREAVLLAAGDALAADGFDALDLGEIARRAGVGKTTVYRRWGTPGGLAADLLADMAEQSLPRADTGALEEDLRANARLVVRTLDDPRQGRLFRALIAASLCNEQAAEALHRFYAVRVDEWAGCVRDAVARGEVPDGTDPHGVVAAVSAPLYYALLNTGRSLTEADADRAARAASTAARAGVWVTG | not failed |
| MKKWLLAAGLGLALATSAQAADKIAIVNMGSLFQQVAQKTGVSNTLENEFKGRASELQRMETDLQAKMKKLQSMKAGSDRTKLEKDVMAQRQTFAQKAQAFEQDRARRSNEERGKLVTRIQTAVKSVANSQDIDLVVDANAVAYNSSDVKDITADVLKQVK | not failed |
| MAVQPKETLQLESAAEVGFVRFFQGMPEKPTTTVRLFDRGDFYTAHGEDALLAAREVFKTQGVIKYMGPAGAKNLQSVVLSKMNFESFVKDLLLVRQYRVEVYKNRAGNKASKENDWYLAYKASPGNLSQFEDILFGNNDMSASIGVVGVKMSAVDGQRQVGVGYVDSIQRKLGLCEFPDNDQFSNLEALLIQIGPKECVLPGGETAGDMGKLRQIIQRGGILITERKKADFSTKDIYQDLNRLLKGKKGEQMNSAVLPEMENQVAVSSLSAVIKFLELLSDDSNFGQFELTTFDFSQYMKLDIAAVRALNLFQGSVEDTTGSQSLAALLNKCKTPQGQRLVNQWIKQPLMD | failed |
| MEAEKKKLSIPPKGIRAIIEAIRLGEIIKPSQYAKREAFKKHDVEEAWLNRVLTMIFYDIMKKQGLIDKVIKEIVGVTPLILDPWLRAALRVAVDIALFHDPSSQTIKNLRWKASDFISSRTHPYVGMYFWDLLDKIFEYKPNPKNELEELEWKYLAPSWLIERVKGILGDETEDFFRSVNKRHEWISIRVNTLKANVEEVIGELEEDGVEVVRSERVPTILKIKGPYNFDTSSAFNEGKIIVQEEASAVASIVLDPKPGETVVDLAAAPGGKTTHLAELMKNKGKIYAFDVDKMRMKRLKDFVKRMGIKIVKPLVKDARKAPEIIGEEVADKVLLDAPCTSSGTIGKNPELRWRLREDKINEMSQLQRELLESAARLVKPGGRLLYTTCSIFKEENEKNIRWFLNVHPEFKLVPLKSPYDPGFLEGTMRAWPHRHSTIGFFYALLEKSK | not failed |
| FLVTPEGRRIAYRLTDGEGPAVVFCGGFKSDMEGTKALHLQAWAERTGRAFLRFDYSGHGQSEGAFLDGSIGDWFEDARAVCGLLAGPLLLVGSSMGGWISLLLAREMGARVAGLVGIAAAPDFTEDSMWGGFNAAQREALQRAGQVILPSDYSEEPYIITRRLIEEGRRRLVLRDPLELGFPVRLLQGTADVDVPPSVALRLLDHATGPDIRLTLVKGADHRFSTPECLRMIEQAVEELL | failed |
| MKSWTILLSTLCLFSCNQQENKFEKYVDPLIGTDIRIVQGKDKNSTEERGQIMPAVGVPHGMTNWVAQTQATEQKCHPPYYYFQDAIQGFRASHWMNGSCTQDYGSITIMPLSNKLEIDPVKRASTFDHTQETATPSYYSVDLNDYDIHAELTGLSRAGIMQFSFEQDGDHYIVIEPNSDEGVAFVEIDPEKKEITGYNPVHRIYQGYGKEAGFSGHFVIQLNEEIADYGVWDSTTITPGRKSAKGQKHAVGAWIKLTSDKPGKILVKVATSFTSIDNARKNLAAEIPGWNFNEVRQASSDIWNQALGQIAVKGNNEKEKVKFYSALYNAHFLPRAFSDVDGSYPRFDGDGQIMKMDHGTYYCDFSQWDTYRAVHPLFSILTPSRNGDMAHSLVLKGQQGGWLPIFPSWNSYTAAMIGDHCIAMIGDAIVKDTPGFDYEEAYTLMRKNAFEANPDSGSYRDGKGRRAMESYLKYNYVPLEDQVTEAFHRREQVSRTLEYAYDDFVLAQVAKKLGKTDDYKALIKRAENYRNVIDPETGYARGRHADGTWIEPFDPFASTSFICEGTPYHYTWYAPQDIAGLIRHMGGKERFINRLDNFFEGNYYWHGNEPGHHIAYLFAYAGEPWKTQKWVHDIINREYFTTPDGLSGNDDAGQMSSWLVFSMVGFYPVCPGMPYYVIGSPSFEESVITLENGKKFTIEAKGASEKNIYIQSATLNGQPYNKSYILHKDIMNGGILSFVMGDSPNKEWASSAGSLPPSMGL | failed |
| MGQFSILGFIALGGAIGACSRYLVSEFCVLLFGRGFPYGTLTVNVVGSFIMGLLIAAFENEILATEPWRQVIGLGFLGALTTFSTFSMDNVLLMQQGAFFKMGLNILLNVVLSISAAWIGFQLLMRS | failed |
| VRTLWISDVHLGTRDCQAEHLSAFLKRYQADKVYLVGDIIDGWKLRGGMYWPQAHTNVIRRLLTMSKRGTEVIYVTGNHDEFLRRYSKLILGNIQLVDEAEHVTADGRRFLVIHGDQFDVITRYHRWLAFLGDSAYEFTLTLNRWLNHWRAKYGYGYWSLSAYLKHKVKSAVNFISDFEEAIAHECVKRGLDGVVCGHIHHAEIRQVGGVEYLNCGDWVESCTALIEHLDGNIELFRLA | failed |
| MDLHGCAKNQVDAELIIGIMENLSWKNTSDPDEADLIIVNSCGFINSAKEESINAVLQAKAAHPKAKVLLAGCLAERYADILKNDLPEADGIFGNGNLSLLPQLIDSMFPKKTSDEKFIEKTLVPPQIGICGGERPKILNFPRSTYIKITEGCDNFCSFCAIPIIRGRLRSRPIKDICDEIKTFLKKSFYEFNLIGQDLAAYQTGKDDLSEDELHRENCSGLALLLKSISKIKGNFKIRLLYIHPDHFPLDILPIMTADKRFLPYFDIPFQSGAQKIIRAMNRNGAAEVYLDIIKNIREAFEKTNSPYGEPQIRTTFLVGFPGETDEDFNETIKFLKELRPLWSGGFTYSREEDTPSYSFKGKVPKKTAEARLAEIQNAQTSITEKKLDSFIGKEIEVLVEELIQAEDKTFLALGRAWFQAPEVDGAVVLNFNLNKKDIDGNPIAPGSIVKARIAARNGFDLEAVAV | failed |
| MSLTVKDILDAIQSPDSTPADIAALPLPESYRAITVHKDETEMFAGLETRDKDPRKSIHLDDVPVPELGPGEALVAVMASSVNYNSVWTSIFEPLSTFGFLERYGRVSDLAKRHDLPYHVIGSDLAGVVLRTGPGVNAWQAGDEVVAHCLSVELESSDGHNDTMLDPEQRIWGFETNFGGLAEIALVKSNQLMPKPDHLSWEEAAAPGLVNSTAYRQLVSRNGAGMKQGDNVLIWGASGGLGSYATQFALAGGANPICVVSSPQKAEICRAMGAEAIIDRNAEGYRFWKDENTQDPKEWKRFGKRIRELTGGEDIDIVFEHPGRETFGASVFVTRKGGTITTCASTSGYMHEYDNRYLWMSLKRIIGSHFANYREAWEANRLIAKGRIHPTLSKVYSLEDTGQAAYDVHRNLHQGKVGVLCLAPEEGLGVRDREKRAQHLDAINRFRNEGHHHHHH | not failed |
| LLLTRPDEECAALAASLGEAGVHSSSLPLLAIDPLEETPEQRTLMLDLDRYCAVVVVSKPAARLGLERLDRYWPQPPQQTWCSVGAATAAILEAYGLDVTYPEQGDDSEALLALPAFQDSLRVHDPKVLIMRGEGGREFLAERLRGQGVQVDYLPLYRRRAPDYPAGELLARVRAERLNGLVVSSGQGLQNLYQLAAADWPEIGRLPLFVPSPRVAEMARELGAQRVIDCRGASAPALLAALTSAA | failed |
| MIRFYMSLSVVKHTILYLCFIFLLLYLKKRYPDNVIIGFFLKIRWCFINSMLHLHFIAIWIAGYRNRCSNSSWNFGYFGCCVETQAKVGRTATNLLLTES | failed |
